In this assay the target is Ecad ectodomain K14E mutant. The experiment in a line: single-molecule AFM dynamic force spectroscopy.

Consider “Ecad ectodomain K14E mutant (domain or fragment)”, for which the dissociation rate constant (koff) is 0.78 s⁻¹.
